In US20120108504A1 (TEMPLE UNIVERSITY OF THE COMMONWEALTH SYSTEM OF HIGHER …, published 2012):
Non-standard residues stand in square brackets, D forms with d. No end group written: not given here. *: point of attachment. αGalNAc = CC(=O)N[C@@H]1[C@@H](O)[C@@H](O)[C@@H](CO)O[C@@H]1*; Tyr(3,5-I2) = N[C@@H](Cc1cc(I)c(O)c(I)c1)C(=O)O; Ahx = NCCCCCC(=O)O

Biological target: T1, leptin receptor (ObR) (human, UniProt P48357 22-1165)
T1 sequence: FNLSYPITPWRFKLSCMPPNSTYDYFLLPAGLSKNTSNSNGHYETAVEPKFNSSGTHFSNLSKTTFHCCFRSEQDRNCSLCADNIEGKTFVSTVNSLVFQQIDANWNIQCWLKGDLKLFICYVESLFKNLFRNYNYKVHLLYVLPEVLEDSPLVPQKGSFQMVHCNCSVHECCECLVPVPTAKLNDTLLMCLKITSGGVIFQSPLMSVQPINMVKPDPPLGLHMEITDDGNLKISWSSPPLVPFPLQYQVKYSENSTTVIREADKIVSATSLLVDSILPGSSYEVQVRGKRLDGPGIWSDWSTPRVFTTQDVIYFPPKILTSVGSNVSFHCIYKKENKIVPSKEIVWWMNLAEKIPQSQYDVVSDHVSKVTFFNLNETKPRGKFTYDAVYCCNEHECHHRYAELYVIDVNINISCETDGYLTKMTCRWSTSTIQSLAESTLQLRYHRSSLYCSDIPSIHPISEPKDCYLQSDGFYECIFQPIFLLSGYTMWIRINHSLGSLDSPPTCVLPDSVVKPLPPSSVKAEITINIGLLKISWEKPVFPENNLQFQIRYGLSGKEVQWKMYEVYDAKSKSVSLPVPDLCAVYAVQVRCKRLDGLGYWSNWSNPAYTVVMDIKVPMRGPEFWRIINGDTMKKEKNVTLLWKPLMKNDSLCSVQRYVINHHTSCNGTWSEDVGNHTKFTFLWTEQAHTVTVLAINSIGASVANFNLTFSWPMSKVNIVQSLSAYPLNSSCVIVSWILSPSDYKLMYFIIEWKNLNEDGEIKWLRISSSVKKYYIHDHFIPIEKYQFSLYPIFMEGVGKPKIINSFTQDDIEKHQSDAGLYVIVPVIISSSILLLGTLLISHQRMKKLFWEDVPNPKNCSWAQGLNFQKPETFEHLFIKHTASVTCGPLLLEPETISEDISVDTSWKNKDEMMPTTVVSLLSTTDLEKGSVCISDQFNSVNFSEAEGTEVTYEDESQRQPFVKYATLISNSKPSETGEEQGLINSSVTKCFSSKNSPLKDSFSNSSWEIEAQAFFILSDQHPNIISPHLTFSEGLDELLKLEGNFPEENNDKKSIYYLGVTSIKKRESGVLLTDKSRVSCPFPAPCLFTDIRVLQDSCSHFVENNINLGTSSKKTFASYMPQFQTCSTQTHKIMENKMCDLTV
Test: cell-based or functional assay

EC50 (nM), proliferation of ObR-positive LN229 glioblastoma cells, no exogenous leptin: < 1 nM
IC50 (nM), inhibition of leptin-induced (12 nM leptin) proliferation of ObR-positive LN229 cells: 100 nM
Binder: [Tyr(3,5-I2)]ST(αGalNAc)EVVALSR[Ahx]-NH2 [Compound (1) [Tyr(I2)-Ser-Thr(α-GalNAc)-Glu-Val-Val-Ala-Leu-Ser-Arg-AcpNH2]]
